Reference: patent US20210238276A1 (INTEGRAL MOLECULAR, published 2021)
Residue numbers refer to the chain shown, from its start.

Experiments:
human GLUT1 (hsGLUT1) = target: T1, human GLUT1 (hsGLUT1) (human, UniProt P11166 1-492); experiment: flow cytometry, permeabilized transfected HEK-293T
T1 construct: whole, on cells
T1 sequence (looked up): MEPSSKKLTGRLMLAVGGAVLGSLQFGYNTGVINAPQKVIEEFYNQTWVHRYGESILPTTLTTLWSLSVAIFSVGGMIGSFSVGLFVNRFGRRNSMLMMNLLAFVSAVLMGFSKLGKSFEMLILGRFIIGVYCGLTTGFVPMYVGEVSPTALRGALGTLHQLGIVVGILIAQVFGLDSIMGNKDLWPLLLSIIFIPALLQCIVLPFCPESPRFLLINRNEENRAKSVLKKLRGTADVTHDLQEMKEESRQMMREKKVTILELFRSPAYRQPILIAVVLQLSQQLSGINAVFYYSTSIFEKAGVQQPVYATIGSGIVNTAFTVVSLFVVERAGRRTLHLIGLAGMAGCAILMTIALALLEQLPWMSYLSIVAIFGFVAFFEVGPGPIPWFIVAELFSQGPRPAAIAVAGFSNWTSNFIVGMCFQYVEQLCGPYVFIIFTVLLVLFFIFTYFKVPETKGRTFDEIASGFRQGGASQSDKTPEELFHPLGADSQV
Method: (§1) HEK-293T cells were transfected by CaPO₄ with plasmids in 6-well culture plates (Falcon) at 750,000 cells/well. At 48 hours post transfection, cells were stained with anti-V5 and anti-GLUT4 MAbs (purified scFv, 2 μg/ml) followed by biotinylated goat anti-mouse or human antibody (1:500) and streptavidin-PerCP (1:500). Fluorescence was detected using an Intellicyt high-throughput flow cytometer (HTFC; Intellicyt, Albuquerque, N. Mex.). For cell permeabilization, cells were treated with saponin at 0.1% in PBS for 20 minutes. To discriminate intact (live) and permeabilized (dead) cells without the use of detergent, propidium iodide (PI) was added to HEK-293T cells at 1 ug/ml just prior to flow cytometry. Where indicated, cytochalasin B (Sigma) was used at a final concentration of 10 uM and phloretin (Sigma) was used at a final concentration of 100 uM, each added in 10% NGS for 30 minutes prior to antibody staining as well as included with the primary antibody.

mouse GLUT1 (mmGLUT1) = target: T2, mouse GLUT1 (mmGLUT1) (mouse, UniProt P17809 1-492); experiment: flow cytometry, permeabilized transfected HEK-293T
T2 construct: whole, on cells
T2 sequence (looked up): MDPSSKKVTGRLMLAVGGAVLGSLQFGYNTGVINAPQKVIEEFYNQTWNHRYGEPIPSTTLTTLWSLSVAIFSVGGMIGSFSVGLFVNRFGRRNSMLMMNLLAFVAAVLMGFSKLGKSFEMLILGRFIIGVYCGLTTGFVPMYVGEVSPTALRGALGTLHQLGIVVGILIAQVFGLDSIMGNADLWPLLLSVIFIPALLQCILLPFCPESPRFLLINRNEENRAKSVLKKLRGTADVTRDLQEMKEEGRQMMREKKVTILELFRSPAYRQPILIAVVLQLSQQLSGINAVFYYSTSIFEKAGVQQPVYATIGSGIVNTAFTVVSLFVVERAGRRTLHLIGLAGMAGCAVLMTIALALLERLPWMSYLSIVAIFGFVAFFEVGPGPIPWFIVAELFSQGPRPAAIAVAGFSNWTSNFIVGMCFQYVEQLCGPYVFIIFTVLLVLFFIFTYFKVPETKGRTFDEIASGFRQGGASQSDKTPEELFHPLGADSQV
Method: as §1

hsGLUT4 R416A = target: T3, hsGLUT4 R416A (human, UniProt P14672 1-509); experiment: flow cytometry, alanine-scan library in HEK-293T, with cytochalasin B
T3 sequence: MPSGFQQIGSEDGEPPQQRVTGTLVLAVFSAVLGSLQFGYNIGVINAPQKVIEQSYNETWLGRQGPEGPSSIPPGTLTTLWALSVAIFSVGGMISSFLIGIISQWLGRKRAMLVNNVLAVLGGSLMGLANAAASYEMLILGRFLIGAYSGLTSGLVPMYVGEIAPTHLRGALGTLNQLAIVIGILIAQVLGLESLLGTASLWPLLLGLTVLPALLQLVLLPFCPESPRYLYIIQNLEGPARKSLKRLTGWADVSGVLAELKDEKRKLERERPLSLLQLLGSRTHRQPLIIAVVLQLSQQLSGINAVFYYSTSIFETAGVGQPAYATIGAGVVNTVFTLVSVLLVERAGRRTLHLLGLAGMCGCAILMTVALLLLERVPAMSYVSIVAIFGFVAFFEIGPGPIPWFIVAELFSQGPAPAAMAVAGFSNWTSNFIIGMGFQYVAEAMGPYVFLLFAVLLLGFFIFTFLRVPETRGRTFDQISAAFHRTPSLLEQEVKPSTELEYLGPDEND
Method: (§2) Because of the state-dependence of the isolated MAbs, we next wished to understand the mechanism by which each MAb could recognize GLUT4 in its different conformations. The residues required for binding of each MAb were determined using shotgun mutagenesis comprehensive alanine scanning (Davidson E & Doranz B J (2014) A High-Throughput Shotgun Mutagenesis Approach to Mapping B-cell Antibody Epitopes. Immunology, which is hereby incorporated by reference in its entirety). All residues of hsGLUT4 were individually mutated to alanine, with existing alanines changed to serines. Mutations were obtained for 508 of the 509 residues of GLUT4 (excluding the initiating methionine). The entire mutation library was transfected into human HEK-293T cells in a 384-well array format (one clone per well) and assessed for immunoreactivity using high-throughput flow cytometry.
as §1

hsGLUT4 P66A = target: T4, hsGLUT4 P66A (human, UniProt P14672 1-509); experiment: as above
T4 sequence: T3 sequence with P66A, A416R
Method: as §2, §1

- binding result (human GLUT1 (hsGLUT1)): binds
- binding result (mouse GLUT1 (mmGLUT1)): binds
- % of binding to wild type GLUT4 (hsGLUT4 R416A): 70%
- % of binding to wild type GLUT4 (hsGLUT4 P66A): 97%
B1: AB102 (Fc fusion)
scFv: ALTQPSSVSANLGGTVKITCSGGGSYGYGWYQQKSPGSAPVTVIYSNDQRPSDIPSRFSGSKSGSTATLTITGVRAEDEAIYYCGSTDSDYVGIFGAGTTLTVLGQSSRSSGGGGSSGGGGSAVTLDESGGGLQTPGGTLSLVCKASGFDFSSYATIWVRQAPGKGLEWVAGISGTGTGSSTGYAPAVKGRATISRDNGQSTVRLQLNNLRAEDTGSYFCAKSTGYGDSWIYPDSIDAWGHGTEVIVSS
notes: also called MAb AB102; not shown: Fc fragment of human IgG1, cloned in frame with the scFv
